Experimental data published in the supplement of paper PMC6379048.

Key:
Experiment in all cases: Kd (EC50 corrected by depletion factor)
[1] = target: T1, TIAL1 (UniProt Q01085)
T1 sequence: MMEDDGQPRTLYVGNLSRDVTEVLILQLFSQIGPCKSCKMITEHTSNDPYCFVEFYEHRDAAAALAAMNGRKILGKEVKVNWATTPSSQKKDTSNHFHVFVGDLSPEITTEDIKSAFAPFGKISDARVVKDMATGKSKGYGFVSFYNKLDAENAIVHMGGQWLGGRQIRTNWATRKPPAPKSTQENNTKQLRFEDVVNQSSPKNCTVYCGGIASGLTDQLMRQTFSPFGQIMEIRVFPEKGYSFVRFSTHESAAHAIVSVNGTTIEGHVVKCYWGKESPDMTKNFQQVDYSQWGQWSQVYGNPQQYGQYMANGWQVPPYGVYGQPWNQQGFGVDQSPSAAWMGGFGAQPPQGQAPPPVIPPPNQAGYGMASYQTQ
How it was run: (§1)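 Free RNA oligos (0 nM to 30 μM) were pre-incubated with HEK293-FT lysate (2.5 mg protein/well) for 1 h at 4°C, followed by 30 min at 4°C with the same 5′-amino-C6 oligos coupled to NHS-Sepharose beads. Bound proteins were quantified by label-free LC-MS/MS and normalised to the control. EC50 was derived from a four-parameter log-logistic fit, and Kd was obtained by multiplying EC50 by a protein-dependent depletion factor.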

[2] = target: T2, AASS (UniProt Q9UDR5)
T2 sequence: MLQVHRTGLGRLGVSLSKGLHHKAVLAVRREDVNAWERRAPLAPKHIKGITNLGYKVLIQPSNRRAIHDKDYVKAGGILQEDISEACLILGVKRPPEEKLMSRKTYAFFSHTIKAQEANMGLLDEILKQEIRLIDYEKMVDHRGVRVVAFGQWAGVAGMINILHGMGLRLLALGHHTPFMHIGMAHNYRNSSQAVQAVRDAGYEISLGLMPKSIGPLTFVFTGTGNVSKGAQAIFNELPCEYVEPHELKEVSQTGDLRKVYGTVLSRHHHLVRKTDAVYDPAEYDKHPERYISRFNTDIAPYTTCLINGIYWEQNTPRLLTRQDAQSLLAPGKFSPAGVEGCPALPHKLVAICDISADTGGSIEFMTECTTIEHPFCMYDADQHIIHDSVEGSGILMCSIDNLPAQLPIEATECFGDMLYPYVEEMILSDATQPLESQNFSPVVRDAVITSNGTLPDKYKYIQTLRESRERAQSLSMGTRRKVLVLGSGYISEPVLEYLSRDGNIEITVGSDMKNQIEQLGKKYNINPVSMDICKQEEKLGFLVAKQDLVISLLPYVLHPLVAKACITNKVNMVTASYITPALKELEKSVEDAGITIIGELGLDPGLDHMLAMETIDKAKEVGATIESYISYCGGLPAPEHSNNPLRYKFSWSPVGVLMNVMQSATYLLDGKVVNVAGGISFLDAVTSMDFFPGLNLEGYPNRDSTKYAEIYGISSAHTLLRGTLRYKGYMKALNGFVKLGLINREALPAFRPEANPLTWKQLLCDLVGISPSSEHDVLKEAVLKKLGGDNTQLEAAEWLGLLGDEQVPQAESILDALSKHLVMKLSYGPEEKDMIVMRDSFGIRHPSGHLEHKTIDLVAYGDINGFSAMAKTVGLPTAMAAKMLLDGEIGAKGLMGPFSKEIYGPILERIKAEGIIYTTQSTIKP
How it was run: as §1

[3] = target: SRSF10 (UniProt O75494)
How it was run: as §1

[4] = target: GNB2L1 (UniProt P63244)
How it was run: as §1

[5] = target: T3, DHX30 (UniProt Q7L2E3)
T3 sequence: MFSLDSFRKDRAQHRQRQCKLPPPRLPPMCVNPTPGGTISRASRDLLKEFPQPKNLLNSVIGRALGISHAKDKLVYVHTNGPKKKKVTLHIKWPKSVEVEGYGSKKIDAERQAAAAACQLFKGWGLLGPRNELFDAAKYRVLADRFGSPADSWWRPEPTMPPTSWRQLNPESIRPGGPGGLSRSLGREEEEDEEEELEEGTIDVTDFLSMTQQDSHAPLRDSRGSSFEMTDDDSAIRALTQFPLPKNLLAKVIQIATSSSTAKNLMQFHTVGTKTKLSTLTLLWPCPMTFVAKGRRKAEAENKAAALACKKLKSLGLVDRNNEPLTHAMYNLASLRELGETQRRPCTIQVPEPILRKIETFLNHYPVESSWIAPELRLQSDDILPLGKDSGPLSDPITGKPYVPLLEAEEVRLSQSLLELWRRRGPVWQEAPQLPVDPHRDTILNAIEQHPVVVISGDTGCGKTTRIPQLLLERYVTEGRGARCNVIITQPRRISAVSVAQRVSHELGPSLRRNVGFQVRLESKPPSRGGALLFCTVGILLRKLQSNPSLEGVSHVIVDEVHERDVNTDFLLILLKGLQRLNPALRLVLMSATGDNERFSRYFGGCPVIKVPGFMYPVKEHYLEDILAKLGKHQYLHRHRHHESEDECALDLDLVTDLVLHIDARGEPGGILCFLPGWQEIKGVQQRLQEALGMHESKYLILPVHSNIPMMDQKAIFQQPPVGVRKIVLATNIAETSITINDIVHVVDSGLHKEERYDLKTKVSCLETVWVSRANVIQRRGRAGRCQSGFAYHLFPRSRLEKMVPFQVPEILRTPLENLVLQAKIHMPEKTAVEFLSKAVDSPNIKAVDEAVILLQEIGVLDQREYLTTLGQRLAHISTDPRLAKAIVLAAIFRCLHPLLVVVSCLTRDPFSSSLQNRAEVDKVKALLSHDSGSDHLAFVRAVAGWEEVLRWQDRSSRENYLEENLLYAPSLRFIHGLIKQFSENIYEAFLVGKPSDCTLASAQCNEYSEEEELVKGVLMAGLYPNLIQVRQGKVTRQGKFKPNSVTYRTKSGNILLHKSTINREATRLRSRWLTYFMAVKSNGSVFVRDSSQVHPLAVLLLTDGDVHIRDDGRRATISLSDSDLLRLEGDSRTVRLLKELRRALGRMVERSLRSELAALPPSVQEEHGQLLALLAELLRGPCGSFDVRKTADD
How it was run: as §1

Sequence of SRSF10 (O75494 whole entry): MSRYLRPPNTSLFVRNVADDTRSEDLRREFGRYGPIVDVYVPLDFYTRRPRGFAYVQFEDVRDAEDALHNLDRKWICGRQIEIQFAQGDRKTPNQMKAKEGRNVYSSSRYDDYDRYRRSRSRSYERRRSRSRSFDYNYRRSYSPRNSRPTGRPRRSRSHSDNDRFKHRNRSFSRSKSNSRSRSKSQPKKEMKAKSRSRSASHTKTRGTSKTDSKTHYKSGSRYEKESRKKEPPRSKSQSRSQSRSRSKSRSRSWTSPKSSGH

Row | Sequence | Kd [1] [µM] | Kd [2] [µM] | Kd [3] [µM] | Kd [4] [µM] | Kd [5] [µM]
1 | AAUAAA | 0.0112 | 1.22 | 0.156 | – | –
2 | CUGUCCU | – | – | – | 0.808 | 0.0587
